This is an account of results in patent US20220403022A1.

This experiment concerns the target human TIGIT on cells (primary T cells, transfected HEK293 cells, Jurkat reporter cells, NK cells) (human) (UniProt Q495A1). Kind of experiment: cell-based or functional assay.

Sequence of human TIGIT on cells (primary T cells, transfected HEK293 cells, Jurkat reporter cells, NK cells) (human) (Q495A1 22-244 limits assumed): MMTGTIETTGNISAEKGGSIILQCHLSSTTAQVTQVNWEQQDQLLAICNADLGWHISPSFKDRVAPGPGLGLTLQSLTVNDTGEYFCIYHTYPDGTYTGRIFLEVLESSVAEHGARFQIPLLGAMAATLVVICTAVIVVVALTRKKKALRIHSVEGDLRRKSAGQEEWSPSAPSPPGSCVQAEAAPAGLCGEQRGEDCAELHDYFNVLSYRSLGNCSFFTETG

Isotype control (antibody) returned a Max RLU (potency) of 575 RLU.
